Experiments:
[1] = target: human IgG1 (coupled to the sensor chip) (human); assay: SPR, Biacore X-100, single cycle kinetics, human IgG1 coupled to the chip, scFv as analyte
[2] = target: human serum-derived IgG polyclonal antibody (WAKO) (human); assay: affinity column breakthrough curve; scFv immobilized on HiTrap NHS-activated HP 1 mL, polyclonal human IgG 1 mg/mL at 1 mL/min
[3] = target: human serum-derived IgG polyclonal antibody (WAKO) (human); assay: affinity column breakthrough curve; scFv (5.0 mg) immobilized on HiTrap NHS-activated HP 1 mL, polyclonal human IgG 1 mg/mL at 1 mL/min

Kd [1] [nM] | koff [1] [s⁻¹] | kon [1] [M⁻¹ s⁻¹] | [10% DBC (mg/mL) at flow rate of 1.0 mL/min]/[amount of protein immobilized on column (mg)] [2] | [10% DBC (mg/mL) at flow rate of 1.0 mL/min]/[amount of protein immobilized on column (mg)] [3] | Binder
1.6 | 9.1e-05 | 56000 | 0.63 (mg/mL)/mg | – | R3-26 repCK+K (scFv) scFv: QEQLVESGGGLVTPGGTLTLTCTVSGIDLSSYAMSWVRQVPGEGLEWIGIIGSGGGTAYANWARGRFTISRTSSTTVDLRMTSLTTEDTATYFCATDYGIYGYAYGHLWGPGTLVTVTSGGGGSGGGGSGGGGSELVMTQTASPVSAAVGGTVTINCQASQSISTALAWYQQRPGQPPRLLIYDASTLASGVSSRFSGSGSGTEFTLTISDLESADAATYYCQTYFGSDTDNAFGEGTEVEITGSAAAGGGGSKIE
1.7 | 0.0001 | 61000 | – | 1.26 (mg/mL)/mg | R3-26 repCK+K3 (scFv) scFv: QEQLVESGGGLVTPGGTLTLTCTVSGIDLSSYAMSWVRQVPGEGLEWIGIIGSGGGTAYANWARGRFTISRTSSTTVDLRMTSLTTEDTATYFCATDYGIYGYAYGHLWGPGTLVTVTSGGGGSGGGGSGGGGSELVMTQTASPVSAAVGGTVTINCQASQSISTALAWYQQRPGQPPRLLIYDASTLASGVSSRFSGSGSGTEFTLTISDLESADAATYYCQTYFGSDTDNAFGEGTEVEITGSAAAGGGGSKKKIE
2.4 | 0.00017 | 70000 | – | 1.4 (mg/mL)/mg | R3-26 repCK+K5 (scFv) scFv: QEQLVESGGGLVTPGGTLTLTCTVSGIDLSSYAMSWVRQVPGEGLEWIGIIGSGGGTAYANWARGRFTISRTSSTTVDLRMTSLTTEDTATYFCATDYGIYGYAYGHLWGPGTLVTVTSGGGGSGGGGSGGGGSELVMTQTASPVSAAVGGTVTINCQASQSISTALAWYQQRPGQPPRLLIYDASTLASGVSSRFSGSGSGTEFTLTISDLESADAATYYCQTYFGSDTDNAFGEGTEVEITGSAAAGGGGSKKKKKIE
